Assay results published in article PMC12416549 (2024).
Substitutions are numbered along the chain they refer to. Names and notes keep the numbering of the source. Blank lines part the entries; values can stand above or below the binder they belong to.

Target: T1, TNFR1 (Homo sapiens, UniProt P19438)
T1 chain: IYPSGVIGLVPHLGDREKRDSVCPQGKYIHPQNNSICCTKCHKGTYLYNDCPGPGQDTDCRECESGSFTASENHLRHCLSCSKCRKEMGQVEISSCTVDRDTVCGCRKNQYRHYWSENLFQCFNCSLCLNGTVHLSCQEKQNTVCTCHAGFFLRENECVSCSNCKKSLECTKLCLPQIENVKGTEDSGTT
Test: yeast display SC50

B1: E9H (designed binder)
chain: MTLQELLRHEALRRAEAEAFRYALELLAEKFPEQKEYLLDLAEEIESQIRSLSGVDVEDVRKFLDKEWAWVKELLAEHPAELAEVEAARAARLAELRAEVEAKVAA
apparent Kd (screen): 593 pM

B2: A23L (designed binder)
chain: B1 chain with H9E, A23L
apparent Kd (screen): 593 pM

B3: A76M (designed binder)
chain: B1 chain with H9E, A76M
apparent Kd (screen): 869 pM

B6: E9S (designed binder)
chain: B1 chain with H9S
apparent Kd (screen): 869 pM

B8: Q4V (designed binder)
chain: B1 chain with Q4V, H9E
apparent Kd (screen): 490 pM

B9: K66G (designed binder)
chain: B1 chain with H9E, K66G
apparent Kd (screen): 539 pM

B10: K66D (designed binder)
chain: B1 chain with H9E, K66D
apparent Kd (screen): 490 pM

B11: A28K (designed binder)
chain: B1 chain with H9E, A28K
apparent Kd (screen): 10400 pM

B13: K30F (designed binder)
chain: B1 chain with H9E, K30F
apparent Kd (screen): 539 pM

B14: S53E (designed binder)
chain: B1 chain with H9E, S53E
apparent Kd (screen): 2250 pM

B18: D40N (designed binder)
chain: B1 chain with H9E, D40N
apparent Kd (screen): 2480 pM

B19: V57P (designed binder)
chain: B1 chain with H9E, V57P
apparent Kd (screen): 1540 pM

B21: P32S (designed binder)
chain: B1 chain with H9E, P32S
apparent Kd (screen): 490 pM

B23: D59W (designed binder)
chain: B1 chain with H9E, D59W
apparent Kd (screen): 1050 pM

Results, then the binder that gave them:

apparent Kd (screen): 653 pM
B4: V104M (designed binder)
chain: B1 chain with H9E, V104M

apparent Kd (screen): 593 pM
B5: P79Q (designed binder)
chain: B1 chain with H9E, P79Q

apparent Kd (screen): 593 pM
B7: E95A (designed binder)
chain: B1 chain with H9E, E95A

apparent Kd (screen): 718 pM
B12: E95Y (designed binder)
chain: B1 chain with H9E, E95Y

apparent Kd (screen): 539 pM
B15: K103C (designed binder)
chain: B1 chain with H9E, K103C

apparent Kd (screen): 593 pM
B16: E81V (designed binder)
chain: B1 chain with H9E, E81V

apparent Kd (screen): 490 pM
B17: L96K (designed binder)
chain: B1 chain with H9E, L96K

apparent Kd (screen): 539 pM
B20: A88S (designed binder)
chain: B1 chain with H9E, A88S

apparent Kd (screen): 490 pM
B22: A105H (designed binder)
chain: B1 chain with H9E, A105H

apparent Kd (screen): 718 pM
B24: E81D (designed binder)
chain: B1 chain with H9E, E81D
